# Assay results: patent US20160168251A1 (MorphoSys, published 2016)
# B1: 5591 IgG4_Pro (antibody, V domains shown)
# VH: QVQLQQSGPGLVKPSQTLSLTCAISGDSVSSRSASWSWIRQSPGRGLEWLGRTYYRSHWYYEYAQSVKSRITINPDTSKNQFSLQLNSVTPEDTAVYYCARMDVPSFRYFDVWGQGTLVTVSS
# VL: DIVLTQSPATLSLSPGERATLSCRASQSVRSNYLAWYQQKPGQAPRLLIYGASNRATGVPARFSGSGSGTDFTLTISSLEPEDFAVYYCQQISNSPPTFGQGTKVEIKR
# Molecular target: T1, rat NPRA on HEK cells bound to ANP (rat, UniProt P18910 29-1057; P01161 123-150)
# T1 construct: whole, on cells;mature; also called HEK293T-GCA
# T1 sequence (looked up): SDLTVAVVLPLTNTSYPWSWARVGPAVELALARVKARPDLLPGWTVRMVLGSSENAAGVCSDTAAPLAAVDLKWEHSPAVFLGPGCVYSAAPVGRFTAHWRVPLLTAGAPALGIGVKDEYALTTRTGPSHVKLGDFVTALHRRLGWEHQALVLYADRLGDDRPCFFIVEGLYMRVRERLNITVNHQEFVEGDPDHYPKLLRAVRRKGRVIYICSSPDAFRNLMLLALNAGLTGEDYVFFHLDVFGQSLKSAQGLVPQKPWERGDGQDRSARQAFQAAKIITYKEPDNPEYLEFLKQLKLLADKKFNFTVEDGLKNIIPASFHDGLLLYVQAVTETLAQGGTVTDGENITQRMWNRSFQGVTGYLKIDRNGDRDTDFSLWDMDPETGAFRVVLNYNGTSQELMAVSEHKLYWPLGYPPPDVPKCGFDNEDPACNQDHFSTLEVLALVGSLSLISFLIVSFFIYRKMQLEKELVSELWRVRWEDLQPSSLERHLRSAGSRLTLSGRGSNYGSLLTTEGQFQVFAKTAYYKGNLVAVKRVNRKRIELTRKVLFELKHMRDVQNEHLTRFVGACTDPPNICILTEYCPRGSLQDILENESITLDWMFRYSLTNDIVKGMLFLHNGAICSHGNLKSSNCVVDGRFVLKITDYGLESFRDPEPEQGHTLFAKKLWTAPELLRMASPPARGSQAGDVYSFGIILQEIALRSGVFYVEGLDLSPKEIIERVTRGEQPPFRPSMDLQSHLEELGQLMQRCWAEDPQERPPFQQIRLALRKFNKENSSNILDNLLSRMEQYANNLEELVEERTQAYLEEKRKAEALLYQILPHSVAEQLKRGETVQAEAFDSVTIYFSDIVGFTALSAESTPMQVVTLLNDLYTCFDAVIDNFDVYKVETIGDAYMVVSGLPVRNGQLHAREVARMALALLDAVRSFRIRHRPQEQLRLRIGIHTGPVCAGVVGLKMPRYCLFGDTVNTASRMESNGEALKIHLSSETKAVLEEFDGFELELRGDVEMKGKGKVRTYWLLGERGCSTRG
# T1 sequence (peptide, looked up): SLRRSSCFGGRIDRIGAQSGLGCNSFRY
# Experiment: KinExA whole cell binding (Kd,app), HEK cells with rat NPRA, ANP bound
binder,measurement,value
B1,Kd,13 pM
